What was measured:
HeLa Kyoto [1] = assay: solubility in G1/S (NP-40 vs SDS abundance) (log2 ratio); higher = more soluble; conditions: cell cycle stage: G1/S
HeLa Kyoto [2] = assay: thermal stability score vs G1/S (z-score of summed log2 fold changes over temperatures); higher = more thermally stable than in G1/S
HeLa Kyoto [3] = assay: melting temperature (median over replicates), in situ; higher = more thermally stable
HeLa Kyoto [4] = assay: solubility change mitosis vs G1/S (difference of NP-40 vs SDS log2 ratios) (log2 ratio difference); higher = more soluble in mitosis
[5] = cell cycle stage: early G1 (4.5 h after nocodazole release)
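Throughout, for melting temperature (median over replicates), in situ: HeLa Kyoto cells synchronized by double thymidine or nocodazole block, proteins quantified by TMT10plex mass spectrometry, three independent biological replicates.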
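Throughout, for solubility change mitosis vs G1/S (difference of NP-40 vs SDS log2 ratios): synchronized HeLa Kyoto cells (double thymidine block for G1/S, nocodazole release for mitosis), protein amounts in NP-40 versus SDS lysates quantified by mass spectrometry, three biological replicates.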
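Throughout, for solubility in G1/S (NP-40 vs SDS abundance): HeLa Kyoto cells arrested at G1/S by double thymidine block, proteins quantified by TMT10plex mass spectrometry in mild NP-40 versus SDS extracts, three biological replicates.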
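Throughout, for thermal stability score vs G1/S (z-score of summed log2 fold changes over temperatures): synchronized HeLa Kyoto cells, proteins quantified by TMT10plex mass spectrometry, three biological replicates, mitosis taken 0.5 h after nocodazole release, G1/S directly after double thymidine block.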

| Substance | solubility in G1/S (log2) (HeLa Kyoto [1]) | thermal stability score (HeLa Kyoto [2]; [5]) | thermal stability score (HeLa Kyoto [2]; cell cycle stage: mitosis) | melting temperature (HeLa Kyoto [3]; cell cycle stage: G1/S) | melting temperature (HeLa Kyoto [3]; cell cycle stage: mitosis) | solubility change mitosis (log2) (HeLa Kyoto [4]) |
| --- | --- | --- | --- | --- | --- | --- |
| MASEDIAKLAETLAKTQVAGGQLSFKGKSLKLNTAEDAKDVIKEIEDFDSLEALRLEGNTVGVEAARVIAKALEKKSELKRCHWSDMFTGRLRTEIPPALISLGEGLITAGAQLVELDLSDNAFGPDGVQGFEALLKSSACFTLQELKLNNCGMGIGGGKILAAALTECHRKSSAQGKPLALKVFVAGRNRLENDGATALAEAFRVIGTLEEVHMPQNGINHPGITALAQAFAVNPLLRVINLNDNTFTEKGAVAMAETLKTLRQVEVINFGDCLVRSKGAVAIADAIRGGLPKLKELNLSFCEIKRDAALAVAEAMADKAELEKLDLNGNTLGEEGCEQLQEVLEGFNMAKVLASLSDDEDEEEEEEGEEEEEEAEEEEEEDEEEEEEEEEEEEEEPQQRGQGEKSATPSRKILDPNTGEPAPVLSSPPPADVSTFLAFPSPEKLLRLGPKSSVLIAQQTDTSDPEKVVSAFLKVSSVFKDEATVRMAVQDAVDALMQKAFNSSSFNSNTFLTRLLVHMGLLKSEDKVKAIANLYGPLMALNHMVQQDYFPKALAPLLLAFVTKPNSALESCSFARHSLLQTLYKV [RANGAP1] | 0.166 | 0.55 | 2.63 | 48.6 °C | 49 °C | 0.199 |
| MSAEVKVTGQNQEQFLLLAKSAKGAALATLIHQVLEAPGVYVFGELLDMPNVRELAESDFASTFRLLTVFAYGTYADYLAEARNLPPLTEAQKNKLRHLSVVTLAAKVKCIPYAVLLEALALRNVRQLEDLVIEAVYADVLRGSLDQRNQRLEVDYSIGRDIQRQDLSAIARTLQEWCVGCEVVLSGIEEQVSRANQHKEQQLGLKQQIESEVANLKKTIKVTTAAAAAATSQDPEQHLTELREPAPGTNQRQPSKKASKGKGLRGSAKIWSKSN [COPS7A] | 0.458 | -1.47 | -1.53 | 53.9 °C | 54 °C | 0.216 |
| MADGELNVDSLITRLLEVRGCRPGKIVQMTEAEVRGLCIKSREIFLSQPILLELEAPLKICGDIHGQYTDLLRLFEYGGFPPEANYLFLGDYVDRGKQSLETICLLLAYKIKYPENFFLLRGNHECASINRIYGFYDECKRRFNIKLWKTFTDCFNCLPIAAIVDEKIFCCHGGLSPDLQSMEQIRRIMRPTDVPDTGLLCDLLWSDPDKDVQGWGENDRGVSFTFGADVVSKFLNRHDLDLICRAHQVVEDGYEFFAKRQLVTLFSAPNYCGEFDNAGGMMSVDETLMCSFQILKPSEKKAKYQYGGLNSGRPVTPPRTANPPKKR [PPP1CB] | -0.161 | 0.423 | 0.737 | 52.3 °C | 52.1 °C | 0.0171 |
| MAGAQPGVHALQLEPPTVVETLRRGSKFIKWDEETSSRNLVTLRVDPNGFFLYWTGPNMEVDTLDISSIRDTRTGRYARLPKDPKIREVLGFGGPDARLEEKLMTVVSGPDPVNTVFLNFMAVQDDTAKVWSEELFKLAMNILAQNASRNTFLRKAYTKLKLQVNQDGRIPVKNILKMFSADKKRVETALESCGLKFNRSESIRPDEFSLEIFERFLNKLCLRPDIDKILLEIGAKGKPYLTLEQLMDFINQKQRDPRLNEVLYPPLRPSQARLLIEKYEPNQQFLERDQMSMEGFSRYLGGEENGILPLEALDLSTDMTQPLSAYFINSSHNTYLTAGQLAGTSSVEMYRQALLWGCRCVELDVWKGRPPEEEPFITHGFTMTTEVPLRDVLEAIAETAFKTSPYPVILSFENHVDSAKQQAKMAEYCRSIFGDALLIEPLDKYPLAPGVPLPSPQDLMGRILVKNKKRHRPSAGGPDSAGRKRPLEQSNSALSESSAATEPSSPQLGSPSSDSCPGLSNGEEVGLEKPSLEPQKSLGDEGLNRGPYVLGPADREDEEEDEEEEEQTDPKKPTTDEGTASSEVNATEEMSTLVNYIEPVKFKSFEAARKRNKCFEMSSFVETKAMEQLTKSPMEFVEYNKQQLSRIYPKGTRVDSSNYMPQLFWNVGCQLVALNFQTLDVAMQLNAGVFEYNGRSGYLLKPEFMRRPDKSFDPFTEVIVDGIVANALRVKVISGQFLSDRKVGIYVEVDMFGLPVDTRRKYRTRTSQGNSFNPVWDEEPFDFPKVVLPTLASLRIAAFEEGGKFVGHRILPVSAIRSGYHYVCLRNEANQPLCLPALLIYTEASDYIPDDHQDYAEALINPIKHVSLMDQRARQLAALIGESEAQAGQETCQDTQSQQLGSQPSSNPTPSPLDASPRRPPGPTTSPASTSLSSPGQRDDLIASILSEVAPTPLDELRGHKALVKLRSRQERDLRELRKKHQRKAVTLTRRLLDGLAQAQAEGRCRLRPGALGGAADVEDTKEGEDEAKRYQEFQNRQVQSLLELREAQVDAEAQRRLEHLRQALQRLREVVLDANTTQFKRLKEMNEREKKELQKILDRKRHNSISEAKMRDKHKKEAELTEINRRHITESVNSIRRLEEAQKQRHDRLVAGQQQVLQQLAEEEPKLLAQLAQECQEQRARLPQEIRRSLLGEMPEGLGDGPLVACASNGHAPGSSGHLSGADSESQEENTQL [PLCB3] | 0.0201 | 0.256 | -0.25 | 52.7 °C | 51.7 °C | 0.0123 |
| MNSIKNVPARVLSRRPGHSLEAEREQFDKTQAISISKAINTQEAPVKEKHARRIILGTHHEKGAFTFWSYAIGLPLPSSSILSWKFCHVLHKVLRDGHPNVLHDCQRYRSNIREIGDLWGHLHDRYGQLVNVYTKLLLTKISFHLKHPQFPAGLEVTDEVLEKAAGTDVNNIFQLTVEMFDYMDCELKLSESVFRQLNTAIAVSQMSSGQCRLAPLIQVIQDCSHLYHYTVKLLFKLHSCLPADTLQGHRDRFHEQFHSLRNFFRRASDMLYFKRLIQIPRLPEGPPNFLRASALAEHIKPVVVIPEEAPEDEEPENLIEISTGPPAGEPVVVADLFDQTFGPPNGSVKDDRDLQIESLKREVEMLRSELEKIKLEAQRYIAQLKSQVNALEGELEEQRKQKQKALVDNEQLRHELAQLRAAQLEGERSQGLREEAERKASATEARYNKLKEKHSELVHVHAELLRKNADTAKQLTVTQQSQEEVARVKEQLAFQVEQVKRESELKLEEKSDQLEKLKRELEAKAGELARAQEALSHTEQSKSELSSRLDTLSAEKDALSGAVRQREADLLAAQSLVRETEAALSREQQRSSQEQGELQGRLAERESQEQGLRQRLLDEQFAVLRGAAAEAAGILQDAVSKLDDPLHLRCTSSPDYLVSRAQEALDAVSTLEEGHAQYLTSLADASALVAALTRFSHLAADTIINGGATSHLAPTDPADRLIDTCRECGARALELMGQLQDQQALRHMQASLVRTPLQGILQLGQELKPKSLDVRQEELGAVVDKEMAATSAAIEDAVRRIEDMMNQARHASSGVKLEVNERILNSCTDLMKAIRLLVTTSTSLQKEIVESGRGAATQQEFYAKNSRWTEGLISASKAVGWGATQLVEAADKVVLHTGKYEELIVCSHEIAASTAQLVAASKVKANKHSPHLSRLQECSRTVNERAANVVASTKSGQEQIEDRDTMDFSGLSLIKLKKQEMETQVRVLELEKTLEAERMRLGELRKQHYVLAGASGSPGEEVAIRPSTAPRSVTTKKPPLAQKPSVAPRQDHQLDKKDGIYPAQLVNY [HIP1R] | -0.0581 | -0.263 | 0.371 | 50 °C | 49.5 °C | -0.0177 |
| MEGGLGRAVCLLTGASRGFGRTLAPLLASLLSPGSVLVLSARNDEALRQLEAELGAERSGLRVVRVPADLGAEAGLQQLLGALRELPRPKGLQRLLLINNAGSLGDVSKGFVDLSDSTQVNNYWALNLTSMLCLTSSVLKAFPDSPGLNRTVVNISSLCALQPFKGWALYCAGKAARDMLFQVLALEEPNVRVLNYAPGPLDTDMQQLARETSVDPDMRKGLQELKAKGKLVDCKVSAQKLLSLLEKDEFKSGAHVDFYDK [SPR] | 0.0864 | -5.72 | -2.25 | 53.8 °C | 52.3 °C | -0.117 |
| MAASGAVEPGPPGAAVAPSPAPAPPPAPDHLFRPISAEDEEQQPTEIESLCMNCYCNGMTRLLLTKIPFFREIIVSSFSCEHCGWNNTEIQSAGRIQDQGVRYTLSVRALEDMNREVVKTDSAATRIPELDFEIPAFSQKGALTTVEGLITRAISGLEQDQPARRANKDATAERIDEFIVKLKELKQVASPFTLIIDDPSGNSFVENPHAPQKDDALVITHYNRTRQQEEMLGLQEEAPAEKPEEEDLRNEVLQFSTNCPECNAPAQTNMKLVQIPHFKEVIIMATNCENCGHRTNEVKSGGAVEPLGTRITLHITDASDMTRDLLKSETCSVEIPELEFELGMAVLGGKFTTLEGLLKDIRELVTKNPFTLGDSSNPGQTERLQEFSQKMDQIIEGNMKAHFIMDDPAGNSYLQNVYAPEDDPEMKVERYKRTFDQNEELGLNDMKTEGYEAGLAPQR [ZPR1] | 0.433 | -0.562 | -0.171 | 52.6 °C | 52.5 °C | -0.0376 |
| MAVAVAMAGALIGSEPGPAEELAKLEYLSLVSKVCTELDNHLGINDKDLAEFVISLAEKNTTFDTFKASLVKNGAEFTDSLISNLLRLIQTMRPPAKPSTSKDPVVKPKTEKEKLKELFPVLCQPDNPSVRTMLDEDDVKVAVDVLKELEALMPSAAGQEKQRDAEHRDRTKKKKRSRSRDRNRDRDRDRERNRDRDHKRRHRSRSRSRSRTRERNKVKSRYRSRSRSQSPPKDRKDRDKYGERNLDRWRDKHVDRPPPEEPTIGDIYNGKVTSIMQFGCFVQLEGLRKRWEGLVHISELRREGRVANVADVVSKGQRVKVKVLSFTGTKTSLSMKDVDQETGEDLNPNRRRNLVGETNEETSMRNPDRPTHLSLVSAPEVEDDSLERKRLTRISDPEKWEIKQMIAANVLSKEEFPDFDEETGILPKVDDEEDEDLEIELVEEEPPFLRGHTKQSMDMSPIKIVKNPDGSLSQAAMMQSALAKERRELKQAQREAEMDSIPMGLNKHWVDPLPDAEGRQIAANMRGIGMMPNDIPEWKKHAFGGNKASYGKKTQMSILEQRESLPIYKLKEQLVQAVHDNQILIVIGETGSGKTTQITQYLAEAGYTSRGKIGCTQPRRVAAMSVAKRVSEEFGCCLGQEVGYTIRFEDCTSPETVIKYMTDGMLLRECLIDPDLTQYAIIMLDEAHERTIHTDVLFGLLKKTVQKRQDMKLIVTSATLDAVKFSQYFYEAPIFTIPGRTYPVEILYTKEPETDYLDASLITVMQIHLTEPPGDILVFLTGQEEIDTACEILYERMKSLGPDVPELIILPVYSALPSEMQTRIFDPAPPGSRKVVIATNIAETSLTIDGIYYVVDPGFVKQKVYNSKTGIDQLVVTPISQAQAKQRAGRAGRTGPGKCYRLYTERAYRDEMLTTNVPEIQRTNLASTVLSLKAMGINDLLSFDFMDAPPMETLITAMEQLYTLGALDDEGLLTRLGRRMAEFPLEPMLCKMLIMSVHLGCSEEMLTIVSMLSVQNVFYRPKDKQALADQKKAKFHQTEGDHLTLLAVYNSWKNNKFSNPWCYENFIQARSLRRAQDIRKQMLGIMDRHKLDVVSCGKSTVRVQKAICSGFFRNAAKKDPQEGYRTLIDQQVVYIHPSSALFNRQPEWVVYHELVLTTKEYMREVTTIDPRWLVEFAPAFFKVSDPTKLSKQKKQQRLEPLYNRYEEPNAWRISRAFRRR [DHX8] | -0.655 | 1.86 | 4.58 | 49.9 °C | 50.7 °C | 0.24 |
| MKSYTPYFILLWSAVGIAKAAKIIIVPPIMFESHMYIFKTLASALHERGHHTVFLLSEGRDIAPSNHYSLQRYPGIFNSTTSDAFLQSKMRNIFSGRLTAIELFDILDHYTKNCDLMVGNHALIQGLKKEKFDLLLVDPNDMCGFVIAHLLGVKYAVFSTGLWYPAEVGAPAPLAYVPEFNSLLTDRMNLLQRMKNTGVYLISRLGVSFLVLPKYERIMQKYNLLPEKSMYDLVHGSSLWMLCTDVALEFPRPTLPNVVYVGGILTKPASPLPEDLQRWVNGANEHGFVLVSFGAGVKYLSEDIANKLAGALGRLPQKVIWRFSGPKPKNLGNNTKLIEWLPQNDLLGHSKIKAFLSHGGLNSIFETIYHGVPVVGIPLFGDHYDTMTRVQAKGMGILLEWKTVTEKELYEALVKVINNPSYRQRAQKLSEIHKDQPGHPVNRTIYWIDYIIRHNGAHHLRAAVHQISFCQYFLLDIAFVLLLGAALLYFLLSWVTKFIYRKIKSLWSRNKHSTVNGHYHNGILNGKYKRNGHIKHEKKVK [UGT8] | -0.021 | 0.353 | -0.0434 | – | 53.8 °C | -0.0716 |
| EIF4H | 0.374 | -1.37 | -1.91 | 51.3 °C | 51.9 °C | 0.16 |

— the supplement of paper PMC5998384
